T1: HPV11 L1 protein (human papillomavirus type 11, UniProt P04012 1-501)
T1 construct: Full-length HPV11 L1 DNA amplified from pVL11L1
T1 sequence: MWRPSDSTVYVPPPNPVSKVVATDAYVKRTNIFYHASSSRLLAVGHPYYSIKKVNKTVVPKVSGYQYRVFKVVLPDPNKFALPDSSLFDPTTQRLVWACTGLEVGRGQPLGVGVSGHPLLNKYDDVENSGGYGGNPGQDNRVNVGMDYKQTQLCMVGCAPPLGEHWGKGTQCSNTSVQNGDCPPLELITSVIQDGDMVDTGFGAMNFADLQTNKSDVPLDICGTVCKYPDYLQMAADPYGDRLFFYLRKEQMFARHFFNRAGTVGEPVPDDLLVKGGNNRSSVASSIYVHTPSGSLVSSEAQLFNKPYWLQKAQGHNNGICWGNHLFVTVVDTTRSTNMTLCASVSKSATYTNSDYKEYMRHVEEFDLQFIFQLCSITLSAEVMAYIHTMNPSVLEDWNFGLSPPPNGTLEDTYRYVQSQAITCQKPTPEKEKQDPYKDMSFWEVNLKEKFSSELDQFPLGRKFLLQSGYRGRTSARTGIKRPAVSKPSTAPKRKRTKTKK


Biological target: T1, HPV11 L1 protein
Assay: co-expression in E. coli, glutathione sepharose eluate, SDS-PAGE
Experimental: The lysates were then treated with 10 units/ml DNAse I in the presence of 5 mM MgCl2 for 30 minutes. […] Lysates were briefly sonicated, then centrifuged at 17,000 G for one hour and the supernatant was passed over a 10 mL bed volume glutathione sepharose column. […] The columns were washed with buffer L (40 mM Tris-Cl, pH 8.0, 0.2 M NaCl, 1 mM EDTA, 2 mM DTT) until no protein was detectable in the wash (approximately 20 bed volumes). To purify L1+GST-L2 complexes, bound proteins were eluted with 10 mM reduced glutathione in buffer L. The eluates were concentrated using Centriplus concentrators (Amicon). To further purify L1+L2 complexes from contaminating bacterial proteins, free L2 and L2 degradation products, eluted proteins were subjected to size exclusion fast pressure chromatography (FPLC) using a HiLoad Superdex 200 gel filtration column (Pharmacia). FPLC fractions containing complexes were pooled and further concentrated as outlined above. Protein complexes were analyzed by SDS-PAGE followed by Coomassie blue staining or immunoblotting. For densitometric analysis on Coomassie-stained gels, images were captured using a fluor-S MultiImager (Bio-Rad) with Quantity One software (BioRad) and quantitated using ImageQuant software (Molecular Dynamics). Using this strategy, L1 will be present upon elution from glutathione-sepharose only if it is bound to GST-L2.
The ability of each L2 protein to bind HPV11 L1 was determined by the presence or absence of L1 in the eluate from the glutathione sepharose column as measured by SDS-PAGE.

Sequence of HPV12 GST-L2 fusion protein, L2 amino acids 360-518 (P08515 whole entry, the tested form may be a part): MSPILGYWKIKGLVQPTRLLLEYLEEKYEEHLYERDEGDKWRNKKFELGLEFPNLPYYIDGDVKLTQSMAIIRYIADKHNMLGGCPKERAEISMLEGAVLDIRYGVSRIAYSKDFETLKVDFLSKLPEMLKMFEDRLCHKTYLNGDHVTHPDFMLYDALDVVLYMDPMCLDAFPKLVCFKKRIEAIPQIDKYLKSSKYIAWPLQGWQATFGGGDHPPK
Sequence of COPV1 GST-L2 fusion protein, L2 amino acids 360-513 (P08515 whole entry, the tested form may be a part): as above

| Molecule | binding result |
| --- | --- |
| HPV11 GST-L2 fusion protein, L2 amino acids 157-455 (other, also called pXA/BN-HPV11L2/157-455; not shown: glutathione-S-transferase (GST) fusion partner from vector pXA/BN (multiple cloning site of pGEX-4T-2); thrombin-cleavab) PLFTEPSVIQPQPPVEASGHILISAPTITSQHVEDIPLDTFVVSSSDSGPTSSTPLPRAFPRPRVGLYSRALQQVQVTDPAFLSTPQRLVTYDNPVYEGEDVSLQFTHESIHNAPDEAFMDIIRLHRPAITSRRGLVRFSRIGQRGSMYTRSGQHIGARIHYFQDISPVTQAAEEIELHPLVAAENDTFDIYAEPFDPIPDPVQHSVTQSYLTSTPNTLSQSWGNTTVPLSIPSDWFVQSGPDITFPTASMGTPFSPVTPALPTGPVFITGSDFYLHPTWYFARRRRKRIPLFFTDVAA | binds |
| HPV11 GST-L2 fusion protein, L2 amino acids 313-400 (other, also called pXA/BN-HPV11L2/313-400; not shown: glutathione-S-transferase (GST) fusion partner from vector pXA/BN (multiple cloning site of pGEX-4T-2); thrombin-cleavab) GARIHYFQDISPVTQAAEEIELHPLVAAENDTFDIYAEPFDPIPDPVQHSVTQSYLTSTPNTLSQSWGNTTVPLSIPSDWFVQSGPDI | no binding |
| HPV11 GST-L2 fusion protein, L2 amino acids 346-455 (other, also called pXA/BN-HPV11L2/346-455; not shown: glutathione-S-transferase (GST) fusion partner from vector pXA/BN (multiple cloning site of pGEX-4T-2); thrombin-cleavab) DIYAEPFDPIPDPVQHSVTQSYLTSTPNTLSQSWGNTTVPLSIPSDWFVQSGPDITFPTASMGTPFSPVTPALPTGPVFITGSDFYLHPTWYFARRRRKRIPLFFTDVAA | binds |
| HPV11 GST-L2 fusion protein, L2 amino acids 346-439 (other, also called pXA/BN-HPV11L2/346-439; not shown: glutathione-S-transferase (GST) fusion partner from vector pXA/BN (multiple cloning site of pGEX-4T-2); thrombin-cleavab) DIYAEPFDPIPDPVQHSVTQSYLTSTPNTLSQSWGNTTVPLSIPSDWFVQSGPDITFPTASMGTPFSPVTPALPTGPVFITGSDFYLHPTWYFA | binds |
| HPV11 GST-L2 fusion protein, L2 amino acids 396-455 (other, also called pXA/BN-HPV11L2/396-455; not shown: glutathione-S-transferase (GST) fusion partner from vector pXA/BN (multiple cloning site of pGEX-4T-2); thrombin-cleavab) SGPDITFPTASMGTPFSPVTPALPTGPVFITGSDFYLHPTWYFARRRRKRIPLFFTDVAA | binds |

Biological target: HPV11 L1 protein (human papillomavirus type 11) (UniProt P04012)
Assay: co-expression, glutathione sepharose eluate, densitometry of Coomassie-stained SDS-PAGE

| Molecule | L1:L2 |
| --- | --- |
| HPV5 GST-L2 fusion protein, L2 amino acids 376-518 (from UniProt P06918 376-518) | < 1 L1:L2 ratio |
| HPV12 GST-L2 fusion protein, L2 amino acids 360-518 (from UniProt P08515 1-218) | < 1 L1:L2 ratio |
| COPV1 GST-L2 fusion protein, L2 amino acids 360-513 (from UniProt P08515 1-218) | < 1 L1:L2 ratio |

Biological target: T1, HPV11 L1 protein
Assay: as above

| Molecule | L1:L2 |
| --- | --- |
| HPV33 GST-L2 fusion protein, L2 amino acids 319-467 (other, also called HPV33 L2; not shown: glutathione-S-transferase (GST) fusion partner from vector pXA/BN (multiple cloning site of pGEX-4T-2); thrombin-cleavab) GARIHYYQDLSPIVPLDHTVPNEQYELQPLHDTSTSSYSINDGLYDVYADDVDNVHTPMQHSYSTFATTRTSNVSIPLNTGFDTPVMSGPDIPSPLFPTSSPFVPISPFFPFDTIVVDGADFVLHPSYFILRRRRKRFPYFFTDVRVAA | > 1 L1:L2 ratio |
| HPV16 GST-L2 fusion protein, L2 amino acids 321-473 (other, also called HPV16 L2; not shown: glutathione-S-transferase (GST) fusion partner from vector pXA/BN (multiple cloning site of pGEX-4T-2); thrombin-cleavab) GAKVHYYYDLSTIDPAEEIELQTITPSTYTTTSHAASPTSINNGLYDIYADDFITDTSTTPVPSVPSTSLSGYIPANTTIPFGGAYNIPLVSGPDIPINITDQAPSLIPIVPGSPQYTIIADAGDFYLHPSYYMLRKRRKRLPYFFSDVSLAA | > 1 L1:L2 ratio |
| HPV6b GST-L2 fusion protein, L2 amino acids 316-459 (other, also called HPV6b L2; not shown: glutathione-S-transferase (GST) fusion partner from vector pXA/BN (multiple cloning site of pGEX-4T-2); thrombin-cleavab) RIHYFYDISPIAQAAEEIEMHPLVAAQDDTFDIYAESFEPGINPTQHPVTNISDTYLTSTPNTVTQPWGNTTVPLSLPNDPFLQSGPDITFPTAPMGTPFSPVTPALPTGPVFITGSGFYLHPAWYFARKRRKRIPLFFSDVAA | > 1 L1:L2 ratio |

Biological target: T1, HPV11 L1 protein
Assay: co-expression in E. coli, glutathione sepharose eluate, immunoblot and Coomassie densitometry

| Molecule | binding result |
| --- | --- |
| BPV1 GST-L2 fusion protein, L2 amino acids 316-469 (other, range 316-469; Cloned as a BamHI/XhoI fragment; also called BPV1 L2; not shown: glutathione-S-transferase (GST) fusion partner from vector pXA/BN (multiple cloning site of pGEX-4T-2); thrombin-cleavab) GPQLHVRYSLSTIHEDVEAIPYTVDENTQGLAFVPLHEEQAGFEEIELDDFSETHRLLPQNTSSTPVGSGVRRSLIPTQEFSATRPTGVVTYGSPDTYSASPVTDPDSTSPSLVIDDTTTTPIIIIDGHTVDLYSSNYTLHPSLLRKRKKRKHA | no binding |
| HPV1a GST-L2 fusion protein, L2 amino acids 347-507 (other, range 347-507; also called HPV1a L2; not shown: glutathione-S-transferase (GST) fusion partner from vector pXA/BN (multiple cloning site of pGEX-4T-2); thrombin-cleavab) GARTHFFYDLSSIAPEDSIELLPLGEHSQTTVISSNLGDTAFIQGETAEDDLEVISLETPQLYSEEELLDTNESVGENLQLTITNSEGEVSILDLTQSRVRPPFGTEDTSLHVYYPNSSKGTPIINPEESFTPLVIIALNNSTGDFELHPSLRKRRKRAYV | no binding |

From US20090220535A1 (REGENTS OF THE UNIVERSITY OF COLORADO, published 2009)
